The text below walks through data of US20230227537A1 (VIB VZW, published 2023).

Read-outs that look alike come from different tables or passages of the source.

Assay [1] addresses T1, Mouse IgG1 Fc fused SARS-CoV-2 RBD (Sino Biological) (SARS-CoV-2; mouse, UniProt P0DTC2 330-518).
The target in assay [2] is T2, SARS-CoV-2 RBD protein Avi-tag biotinylated (AcroBiosystems SPD-C82E9) (SARS-CoV-2, UniProt P0DTC2 330-518).
Assay [3] deals with T2, SARS-CoV-2 RBD protein Avi-tag …. The source holds these as a separate data set.
Assay [4] concerns the target T1, Mouse IgG1 Fc fused SARS-CoV-2 RBD …. The source holds these as a separate data set.
Assay [5] deals with T2, SARS-CoV-2 RBD protein Avi-tag …. This is another data set of the same source.
The target is the same in assay [6]. The source holds these as a separate data set.
Assay [7] addresses T3, monomeric human Fc-fused SARS-CoV-2_RBD-SD1 (SARS-CoV-2, UniProt P0DTC2 319-591). The experiment in a line: BLI, RBD-SD1-mono-hFc on AHC tips. A general note: In BLI a coated tip is dipped into the sample, and binding shifts an interference pattern.
Assay [8] has as its target T3, monomeric human Fc-fused …. Briefly: BLI kinetics on RBD-mono-hFc, 1:1 fit, mean ± SD, n = 2 [upper graph].
For assay [9], the target named is T3, monomeric human Fc-fused …. The experiment in a line: BLI kinetics on RBD-mono-hFc, 1:1 fit, mean ± SD, n = 2.
In assay [10] the target is T1, Mouse IgG1 Fc fused SARS-CoV-2 RBD …. This is another data set of the same source.
Assay [11] shares this target. The source holds these as a separate data set.
In assay [12] the target is SARS-CoV-2 spike, full length, on cells or on pseudotyped/authentic virus (SARS-CoV-2, UniProt P0DTC2 14-1273). The experiment in a line: cell-based or functional assay.
The target of assay [13] is T1, Mouse IgG1 Fc fused SARS-CoV-2 RBD …. The experiment in a line: BLI, RBD-mFc on AMC tips, global 1:1 fit.
Assay [14] concerns the target T3, monomeric human Fc-fused …. The experiment in a line: BLI kinetics on RBD-mono-hFc, 1:1 fit, mean ± SD, n = 2 [lower graph].

B1: D72-52: VHH72_h1_E1D_S56A-([change])2-hIgG1hinge_EPKSCdel-hIgG1Fc_LALAPG_Kdel (Fc fusion)
chain: DVQLVESGGGLVQPGGSLRLSCAASGRTFSEYAMGWFRQAPGKEREFVATISWSGGATYYTDSVKGRFTISRDNAKNTVYLQMNSLRPEDTAVYYCAAAGLGTVVSEWDYDYDYWGQGTLVTVSSGGGGSGGGGSDKTHTCPPCPAPEAAGGPSVFLFPPKPKDTLMISRTPEVTCVVVDVSHEDPEVKFNWYVDGVEVHNAKTKPREEQYNSTYRVVSVLTVLHQDWLNGKEYKCKVSNKALGAPIEKTISKAKGQPREPQVYTLPPSRDELTKNQVSLTCLVKGFYPSDIAVEWESNGQPENNYKTTPPVLDSDGSFFLYSKLTVDKSRWQQGNVFSCSVMHEALHNHYTQKSLSLSPG
Usually IC50 stands for the concentration at which inhibition is half-maximal. Read a high IC50 as lower potency. For B1, it took 0.199 µg/mL to reach half-maximal inhibition in assay [1] (IC50).

B2: VHH3.83 (VHH)
VHH: QVQLQESGGGLVQPGDSLRLSCVLSGGVFTSYAMGWFRQAPGKEREFLAAITFNSDATYYADSVKGRFTISRDNAKNTAYLQMNSLKPNDTAVYSCAAGGNHYNPQYYHDYDKYDHWGQGTQVTVSS
The molecule B2 came in with an IC50 in assay [2] of 0.162 nM.

B3: VHH3.36 (VHH)
VHH: QVQLQESGGGLVQAGDSLRLSCVVSGGTFSSYAMGWFRQAPGKERELVAAINWGGISVYYADSVKGRFTISRDNAENTVYLQMNSLKPEDTAVYYCAADPKGWSEWDMEYWGKGTQVTVSS
In assay [2], B3 returned an IC50 of 0.156 nM.

B4: VHH3.35 (VHH)
VHH: QVQLQESGGGLVQAGGSLTLSCEVSGRTNDNYGVGWFRQVPGAERELVAAIRWSSISRYYKDSVKGRFTISRDNAKNTVYLQMDMLKAEDTAVYYCAADPAGWSEFGMEYWGKGTQVTVSS
B4 registered a half-maximal inhibitory concentration (IC50) in assay [2] of 0.406 nM.

B5: VHH3.55 (VHH)
VHH: QVQLQESGGGLVQAGGSLRLSCEVSGRTNDNYGVGWFRQVPGAERELVAAIRWSSISRYYKDSVKGRFTISRDNAKNTVYLQMDMLKPEDTAAYYCAADPAGWSEFGMEYWGKGTQVTVSS
Take B5: the midpoint of inhibition in assay [2], the IC50, lay at 0.322 nM.

B6: VHH3.47 (VHH)
VHH: QVQLQESGGGLVQAGDSLRLSCAASGHNFSTYAMAWFRQAPGTERELVAAISENDVMRYYADSVKGRFTISRDNAKNMAYLQMNSLKVEDTAVYLCAADPKGWSEWDMDYWGKGTQVTVSS
The molecule B6 showed an IC50 in assay [2] of 0.297 nM.

B7: VHH72_h1(E1D,S56A) sequence optimized (SO), monovalent (VHH)
VHH: DVQLVESGGGLVQPGGSLRLSCAASGRTFSEYAMGWFRQAPGKEREFVATISWSGGATYYTDSVKGRFTISRDNAKNTVYLQMNSLRPEDTAVYYCAAAGLGTVVSEWDYDYDYWGQGTLVTVSS
For orientation: koff means a measure of how fast the partners let go of each other. A low value points to slow dissociation. As to B7, the koff in assay [3] is 0.0024 s⁻¹; in assay [4], 0.00568 s⁻¹.

B8: PB9677 hIgG4 FALA (Fc fusion)
VHH: DVQLVESGGGLVQPGGSLRLSCAASGRTFSEYAMGWFRQAPGKEREFVATISWSGGATYYTDSVKGRFTISRDNAKNTVYLQMNSLRPEDTAVYYCAAAGLGTVVSEWDYDYDYWGQGTLVTVSS
On to B8, for which the “IC50 (read off the curve)” value in assay [5] is ~0.02 µg/mL.

B9: VHH72_h1 (E1D) (VHH)
VHH: DVQLVESGGGLVQPGGSLRLSCAASGRTFSEYAMGWFRQAPGKEREFVATISWSGGSTYYTDSVKGRFTISRDNAKNTVYLQMNSLRPEDTAVYYCAAAGLGTVVSEWDYDYDYWGQGTLVTVSS
What is called Kd is the free concentration of one partner at which half of the binding sites on the other are occupied at equilibrium, for simple one-to-one binding. A higher Kd goes with lower affinity. For B9, the figures for the koff in [3], in assay [4] and in [6] were 0.00354 s⁻¹, 0.0313 s⁻¹ and 0.00204 s⁻¹, respectively. Moreover, the Kd in [4] is 31.1 nM; in [6], 10.4 nM.

B10: VHH2.50 (VHH)
VHH: QVQLQESGGGLVQAGGSLRLSCAASGRTFSSIAMGWFRQAPGKEREFVATISWSGGSTYYADSVKGRFTISRDNAKNTVYLQMNSLKPEDTAVYYCAAAGLGTVVSEWDYDYDYWGQGTQVTVSS
Molecule B10 displayed an IC50 in assay [2] of 27.7 nM.

B11: VHH3.29 (VHH)
VHH: QVQLQESGGGLVQAGGSLRLSCVASGRTFSSGGMGWFRQAPGQEREFVAGIGWAGLSSYYLDSVKGRFTISLDNAKNTVYLQMNMLKPEDTGVYYCAADDHGWSAAGMDYLGQGTQVTVSS
In turn, B11 had an IC50 in assay [2] of 0.389 nM.

B12: VHH3.77 (VHH)
VHH: QVQLQESGGGLVQAGGSLRLSCVSSGRAFGNGAVGWFRQGPGRPREFVATVSWNGGGTYFAESVRGRFTISRDNAKNTVYLQMNNLKPEDTAVYYCALAGEGTVVSEWDYDYEYWGQGTQVTVSS
For orientation: kon means the rate constant with which the complex forms. As for B12, half-maximal inhibition in assay [2] (IC50) was put at 0.237 nM. In assay [7], this molecule gave a Kd of 0.15 nM. In assay [8], this molecule yielded a Kd of 0.153 nM, a koff of 0.000297 s⁻¹ and an on-rate (kon) of 1.96e+06 M⁻¹ s⁻¹.

B13: VHH3BE4 (VHH)
VHH: QVQLQESGGGLVQAGGSLRLSCVASGRAFGNGAVGWFRQAPGREREFVATVSWNGGGTYYAESVRGRFTISRDNAKSTVYLQMNSLKPEDTAVYYCASAGEGTVVSEWDYDYDYWGQGTQVTVSS
In turn, B13 registered an IC50 in assay [2] of 0.212 nM.

B14: VHH3.144 (VHH)
VHH: QVQLQESGGGLVQAGGSLRLSCVASGRAFGNGAVGWFRQAPGREREFVATVSWNGGGTYYAESVRGRFTISRDNAKSTVYLQMNSLKPEDTAVYYCASAGEGTVVSEWDYDYDYWGQGTQVTVSS
On to B14, for which inhibition in assay [2] was half-maximal at 0.397 nM (IC50).

B15: VHH3.17 (VHH)
VHH: QVQLQESGGGLVEAGGSLTLSCAASGRAFGDGAVGWFRQGPGRPREFVATVSWNGGGTYFAESVRGRFTISRDNAKNTVYLQMNNLKPEDTAVYYCALAGEGTVVSEWDYDYEYWGQGTQVTVSS
The molecule B15 showed an IC50 in [2] of 0.316 nM. In [7], this molecule returned a Kd of 0.234 nM. In assay [9], this molecule had a koff of 0.000358 s⁻¹ and a kon of 1.54e+06 M⁻¹ s⁻¹.

B16: D72-22: h1-VHH72-[change]-GS-hIgG1hinge-hIgG1Fc (Fc fusion)
chain: EVQLVESGGGLVQPGGSLRLSCAASGRTFSEYAMGWFRQAPGKEREFVATISWSGGATYYTDSVKGRFTISRDNAKNTVYLQMNSLRPEDTAVYYCAAAGLGTVVSEWDYDYDYWGQGTLVTVSSGS
What is called EC50 is the concentration at which the effect is half-maximal. Read a low EC50 as an effect from little substance. For the molecule B16, in assay [10], the Kd stood at 0.0471 nM, the koff was 4.87e-05 s⁻¹ and the association rate constant (kon) stood at 1.07e+06 M⁻¹ s⁻¹. Moreover, the EC50 in [11] is 0.00439 µg/mL. Moreover, the “IC50, plaque reduction neutralization, authentic SARS-CoV-2” value in assay [12] amounted to 0.12 µg/mL.

B17: D72-17: h1-VHH72-GS-hIgG1hinge-hIgG1Fc-L234A-L235A-P329G (Fc fusion)
chain: EVQLVESGGGLVQPGGSLRLSCAASGRTFSEYAMGWFRQAPGKEREFVATISWSGGSTYYTDSVKGRFTISRDNAKNTVYLQMNSLRPEDTAVYYCAAAGLGTVVSEWDYDYDYWGQGTLVTVSSGS
notes: ExpiCHO
In assay [11], B17 registered an EC50 of 0.00836 µg/mL. In [13], this molecule came in with a Kd of 0.1 nM, a dissociation rate constant (koff) of 0.000178 s⁻¹ and a kon of 1.77e+06 M⁻¹ s⁻¹.

B18: D72-15: VHH72-GS-hIgG1hinge-hIgG1Fc-L234A-L235A-P329G (Fc fusion)
chain: QVQLQESGGGLVQAGGSLRLSCAASGRTFSEYAMGWFRQAPGKEREFVATISWSGGSTYYTDSVKGRFTISRDNAKNTVYLQMNSLKPDDTAVYYCAAAGLGTVVSEWDYDYDYWGQGTQVTVSSGS
notes: ExpiCHO
In turn, B18 returned a 50% effective concentration (EC50) in assay [11] of 0.0108 µg/mL. In assay [13], the Kd amounted to 0.13 nM, the koff is 0.000297 s⁻¹ and the kon was 2.29e+06 M⁻¹ s⁻¹.

B19: VHH3.149 (VHH)
VHH: QVQLQESGGGLVQAGGSLKLSCAASGRTFSSYALGWFRQAPGTEREFVSAINWFGAPTYYADSVKGRFTISRDNAKNTVYLQMDNLKPEDTAVYYCAADSKGWDPQDMDYWGKGTQVTVSS
B19 registered an IC50 in [2] of 0.334 nM.

B20: VHH3.38 (VHH)
VHH: QVQLQESGGGLVQAGGSLRLSCAASGGTFNNYAMAWFRQAPGQERELVAAMFWSGLPKYYADSVKGRFTISTDDAKNTVYLQMNGLKPEDTAVYYCAADSRGWSDVGGMDYWGKGTQVTVSS
Take B20: the 50% inhibitory concentration (IC50) in assay [2] is 0.769 nM.

B21: VHH3.115 (VHH)
VHH: QVQLQESGGGLVQTGGSLRLSCAASGLTFSDIAMGWFRQAPGREREFVATISWSGGGTYYAEPVRGRFAISRDNAKNTVYLQMNSLKPEDTAVYYCAAAGAGTVVSEWDYDYDYWGQGTQVTVSS
As to B21, the IC50 in assay [2] worked out at 0.409 nM. Binding in assay [7] was characterised by a dissociation constant (Kd) of 0.734 nM. In [14], this molecule showed an off-rate (koff) of 0.00157 s⁻¹ and a kon of 2.14e+06 M⁻¹ s⁻¹.
